The results in this text go back to US20100048468A1 (Amgen, published 2010).

Where two headings read alike, the source gives them in different places. Non-standard residues stand in square brackets, D forms with d. Primed or numbered codes have the meaning given here. No end group written: not given here. mPEG40k‑branched = branched 40 kDa PEG (2 × 20 kDa) maleimide, attached to the Cys thiol; mPEG‑maleimide = 30 kD linear mPEG-maleimide attached to the Cys; mPEG 20 kDa = 20 kD mPEG-maleimide, thioether-linked to the Cys; branched PEG 40 kDa″ = 40 kDa branched poly(ethylene glycol); Aib′ = alpha aminobutyric acid (source's wording) Where only a bound is given, the exact number is not on record here.

For orientation: IC50 means the concentration that inhibits the measured activity by half.

The target in assay [1] is T1, human GLP-1 receptor (human, UniProt P43220 24-463). The assay is described as follows: cell-based or functional assay.
In assay [2] the target is T2, mouse GLP-1 receptor (mouse, UniProt O35659 22-463).
T2 sequence (looked up): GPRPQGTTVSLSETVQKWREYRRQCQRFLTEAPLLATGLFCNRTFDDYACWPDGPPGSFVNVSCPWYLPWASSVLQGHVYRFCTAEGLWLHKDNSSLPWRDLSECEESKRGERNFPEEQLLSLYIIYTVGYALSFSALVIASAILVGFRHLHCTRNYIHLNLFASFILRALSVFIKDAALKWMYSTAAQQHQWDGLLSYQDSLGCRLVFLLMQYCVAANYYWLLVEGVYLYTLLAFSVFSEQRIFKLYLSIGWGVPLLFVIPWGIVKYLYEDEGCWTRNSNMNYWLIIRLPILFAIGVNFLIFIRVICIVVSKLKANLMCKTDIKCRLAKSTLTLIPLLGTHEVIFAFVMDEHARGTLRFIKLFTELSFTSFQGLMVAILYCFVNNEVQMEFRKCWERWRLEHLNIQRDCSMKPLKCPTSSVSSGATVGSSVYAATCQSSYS
The assay is described as follows: cell-based or functional assay.

Assay [3] addresses T1, human GLP-1 receptor. Put plainly: 125I-GLP-1 displacement, membranes of CHOK1 cells expressing human GLP-1 receptor. As to the method: Membrane Preparation. […] Cells were sedimented at 1500 rpm for 10 minutes. The resulting pellets were homogenized in 15 mls of ice cold sucrose buffer (25 mM Tris-HCl, 0.32 M Sucrose, 0.25 g/L, sodium azide, pH 7.4) with a motorized, glass fitted, Teflon homogenizer. The homogenate was centrifuged at 48,000×g at 4° C. for 10 minutes, resuspended in 25 ml assay buffer (50 mM Tris-HCl, 5 mM MgCl₂, 10 mg/ml protease-free BSA, 0.1 mg/ml STI, and 0.1 mg/ml Pefabloc, pH 7.4) with a Tissue-Tearor (Biospec Products), then centrifuged again at 48,000×g for 10 minutes. The pellets were homogenized for a third time in 15 ml assay buffer using the Tissue-Tearor and again centrifuged at 48,000×g for 10 minutes. The resulting pellet was resuspended in assay buffer at a wet weight concentration of 4 mg/ml.
Ligand Binding Assay. Binding assays were performed in 96-well U-bottom plates. […] The reaction was terminated by rapid filtration through Unfilter-96 GF/C glass fiber filter plates (FilterMate 196 Packard Harvester, PerkinElmer, Shelton, Conn.) pre-soaked in 0.5% polyethylenimine, followed by three washes with 300 μl of cold 50 mM Tris-HCl, pH 7.4. Bound radioactivity was determined using a TopCount microplate scintillation and luminescence counter (Packard Instrument Company, PerkinElmer, Shelton, Conn.). Nonlinear regression analyses of resulting concentration curves were performed using GraphPad Prism (GraphPad Software, Inc., San Diego, Calif.). […]

Assay [4] deals with T1, human GLP-1 receptor. Put plainly: cell-based or functional assay. This is another data set of the same source.
Assay [5] has as its target T2, mouse GLP-1 receptor. The assay is described as follows: cell-based or functional assay. The source holds these as a separate data set.

With H[Aib′]EGTFTSDVSSYLE[Aib′]QAAKEFIAWLVKGRGC(mPEG 20 kDa)SG [cgGLP-20 (SEQ ID NO: 25 + 20k mPEG)], in the assay with human GLP-1 receptor [1], the EC50 human was 99 pM. This molecule also came in with an EC50 mouse with mouse GLP-1 receptor [2] of 1500 pM. For the same molecule, in the assay with human GLP-1 receptor [3], the IC50 came to 30000 pM.
On to HGEGTFTSDVSSYLEGQAAKEFIAWLVKGRGC(PEG 30 kDa)SG [cgGLP-8 (SEQ ID NO: 10 + 30k PEG)], for which the EC50 human with human GLP-1 receptor [4] was determined as 400 pM. Further, the EC50 mouse in the assay with mouse GLP-1 receptor [5] was determined as 3000 pM.
Molecule HGEGTFTSDVSSYLE[Aib′]QAAKEFIAWLVKGRGC(mPEG‑maleimide 20 kDa)SG-NH2 [cgGLP-24 cgGLP-27, mgGLP-22, mgGLP-33 & mgGLP-27 (SEQ ID NO: 22 + 20k PEG)] displayed an EC50 human with human GLP-1 receptor [1] of 100 pM. For the same molecule, in the assay with mouse GLP-1 receptor [2], the EC50 mouse turned out to be 840 pM. Moreover, the IC50 with human GLP-1 receptor [3] worked out at 47000 pM.

B1: H[bAla]EGT FTSDVSSYLEGQAAKEFIAWLVKGRGCSGG (SEQ ID NO: 12) (peptide)
peptide: HXEGTFTSDVSSYLEGQAAKEFIAWLVKGRGCSGG
modifications: bAla (beta aminopropionic acid) at position 8 (GLP-1 numbering; residue 2 of the entry)
In the assay with human GLP-1 receptor [4], B1 yielded an EC50 human of over 100000 pM.
The molecule HGEGTFTSDVSSYLEGQAAKEFIAWLVKGRGCSG [HGEGTFTSDVSSYLEGQAAKEFIAWLVKGRGCSG (SEQ ID NO: 10)] registered an EC50 human with human GLP-1 receptor [4] of 50 pM. Besides, the EC50 mouse with mouse GLP-1 receptor [5] was determined as 320 pM.
Turning to HGEGTFTSDVSSYLE[Aib′]QAAKEFIAWLVKGRGC(mPEG‑maleimide)SG-NH2 (also: PEG on Cys32: 30k, but the text says branched 40 kDa) [cgGLP-28 (SEQ ID NO: 22 + 30k PEG)], the EC50 human in the assay with human GLP-1 receptor [1] came out at 100 pM. This molecule registered an EC50 mouse in the assay with mouse GLP-1 receptor [2] of 800 pM. Moreover, in the assay with human GLP-1 receptor [3], the IC50 came to 71000 pM.
On to HGEGTFTSDVSSYLE[Aib′]QAAKEFIAWLVKGRGC(mPEG‑maleimide 5 kDa)SG-NH2 (also called cgGLP-25) [cpGLP-25 (SEQ ID NO: 22 + 5k PEG)], for which, in the assay with human GLP-1 receptor [1], the EC50 human stood at 39 pM. This molecule yielded an EC50 mouse with mouse GLP-1 receptor [2] of 900 pM. Further, in the assay with human GLP-1 receptor [3], the IC50 came out at 15000 pM.
For the molecule HGEGTFTSDVSSYLE[Aib′]QAAKEFIAWLVKGRGC(mPEG‑maleimide 20 kDa)SGG-NH2 [mgGLP-15 (SEQ ID NO: 24 + 20k PEG)], the EC50 human with human GLP-1 receptor [1] turned out to be 200 pM. For the same molecule, the EC50 mouse with mouse GLP-1 receptor [2] worked out at 1800 pM. Besides, the half-maximal inhibitory concentration (IC50) with human GLP-1 receptor [3] worked out at 100000 pM.
In turn, HGEGTFTSDVSSYLEGQAAKEFIAWLVKGRGC(PEG 30 kDa)SG [cgGLP-16 (SEQ ID NO: 10 + 30k PEG)] showed an EC50 human in the assay with human GLP-1 receptor [4] of 390 pM. For the same molecule, the EC50 mouse with mouse GLP-1 receptor [5] came out at 4000 pM.
HGEGTFTSDVSSYLE[Aib′]QAAKEFIAWLVKGRGC(mPEG‑maleimide 20 kDa)SG (also called cgGLP-19) [mgGLP19 & cgGLP- (SEQ ID NO: 21 + 20k PEG)]: in the assay with human GLP-1 receptor [1], the EC50 human was 0.32 pM. In the assay with mouse GLP-1 receptor [2], this molecule came in with an EC50 mouse of 4000 pM. For the same molecule, the half-maximal inhibitory concentration (IC50) in the assay with human GLP-1 receptor [3] amounted to 230000 pM.
As for HGEGTFTSDVSSYLEGQAAKEFIAWLVKGRGC(branched PEG 40 kDa″)SG [cgGLP-5 (SEQ ID NO: 10 + 40k branched PEG)], in the assay with mouse GLP-1 receptor [5], the EC50 mouse is 1500 pM.
In the assay with human GLP-1 receptor [1], HGEGTFTSDVSSYLE[Aib′]QAAKEFIAWLVKGRGC(mPEG‑maleimide 10 kDa)SG-NH2 [cgGLP-26 (SEQ ID NO: 22 + 10k PEG)] yielded an EC50 human of 59 pM. In addition, the EC50 mouse with mouse GLP-1 receptor [2] was 900 pM. This molecule had an IC50 with human GLP-1 receptor [3] of 23000 pM.
For HGEGTFTSDVSSYLE[Aib′]QAAKEFIAWLVKGRGC(mPEG40k‑branched)SG-NH2 [cgGLP-29 (SEQ ID NO: 22 + 40k branched PEG)], in that order: 150 pM, 1000 pM and 800000 pM.
